B1: anti-BCMA heavy chain-only antibody (UniAb) with the VH of SEQ ID NO: 12 (antibody, V domains shown)
VH: QVQLVESGGGLVQPGGSLRLSCVASGFTFSSNAMSWVRQAPGKGLEWVSAISGSGDYTHYSDSVKGRFTISRDNSKNTLYLQMNSLRAEDTAVYYCAKEVPGGPLVDFDSRGQGTLVTVSS
notes: Heavy chain-only antibody from UniRat; also called Clone ID No: 316302
B2: AntiX**BCMA_F7E_F7E (bispecific antibody, part only; not given: other chains of three-chain format, not shown: another chain or arm of the molecule)
tandem VH: QVQLVESGGGLVQPGGSLRLSCVASGFTFSSNAMSWVRQAPGKGLEWVSAISGSGDYTHYSDSVKGRFTISRDNSKNTLYLQMNSLRAEDTAVYYCAKEVPGGPLVDFDSRGQGTLVTVSSGGGGSGGGGSQVQLVESGGGLVQPGGSLRLSCVASGFTFSSNAMSWVRQAPGKGLEWVSAISGSGDYTHYSDSVKGRFTISRDNSKNTLYLQMNSLRAEDTAVYYCAKEVPGGPLVDFDSRGQGTLVTVSS

Legend:
[1] = target: recombinant BCMA (R&D Systems, catalog no. 193-BC) (human) (UniProt Q02223); test: competitive ELISA, plate-bound BCMA; Ab 0.200 ng/mL; competitor APRIL 0.00 ng/mL
recombinant BCMA (R&D Systems, catalog no. 193-BC) (human), sequence (Q02223 5-51 limits assumed): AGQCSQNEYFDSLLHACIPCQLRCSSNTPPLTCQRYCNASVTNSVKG

[2] = target: recombinant BCMA (R&D Systems, catalog no. 193-BC) (human) (UniProt Q02223); test: competitive ELISA, plate-bound BCMA; Ab 200.000 ng/mL; competitor APRIL 250.00 ng/mL
[3] = target: recombinant BCMA (R&D Systems, catalog no. 193-BC) (human) (UniProt Q02223); test: competitive ELISA, plate-bound BCMA; Ab 0.020 ng/mL; competitor APRIL 125.00 ng/mL
[4] = target: BCMA on BCMA-expressing cells (H929 / NCI-H929, MM1.S, U266, Daudi) (human) (UniProt Q02223); test: flow cytometry on MM1.S cells; antibody 3.130 ng/ml
BCMA on BCMA-expressing cells (H929 / NCI-H929, MM1.S, U266, Daudi) (human), sequence (Q02223 whole entry): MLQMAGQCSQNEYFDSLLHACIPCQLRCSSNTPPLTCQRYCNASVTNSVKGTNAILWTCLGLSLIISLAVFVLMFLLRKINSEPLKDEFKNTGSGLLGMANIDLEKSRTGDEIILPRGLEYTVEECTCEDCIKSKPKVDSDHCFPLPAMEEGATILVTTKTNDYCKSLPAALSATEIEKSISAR

[5] = target: recombinant BCMA (R&D Systems, catalog no. 193-BC) (human) (UniProt Q02223); test: competitive ELISA, plate-bound BCMA; Ab 0.200 ng/mL; competitor APRIL 500.00 ng/mL
[6] = target: BCMA on BCMA-expressing cells (H929 / NCI-H929, MM1.S, U266, Daudi) (human) (UniProt Q02223); test: flow cytometry on MM1.S cells; antibody 1.560 ng/ml
[7] = target: recombinant BCMA (R&D Systems, catalog no. 193-BC) (human) (UniProt Q02223); test: competitive ELISA, plate-bound BCMA; Ab 0.020 ng/mL; competitor APRIL 250.00 ng/mL
[8] = target: recombinant BCMA (R&D Systems, catalog no. 193-BC) (human) (UniProt Q02223); test: competitive ELISA, plate-bound BCMA; Ab 0.200 ng/mL; competitor APRIL 31.25 ng/mL
[9] = target: BCMA on BCMA-expressing cells (H929 / NCI-H929, MM1.S, U266, Daudi) (human) (UniProt Q02223); test: flow cytometry on H929 cells; antibody 100.000 ng/ml
[10] = target: recombinant BCMA (R&D Systems, catalog no. 193-BC) (human) (UniProt Q02223); test: competitive ELISA, plate-bound BCMA; Ab 2.000 ng/mL; competitor APRIL 250.00 ng/mL
[11] = target: BCMA on BCMA-expressing cells (H929 / NCI-H929, MM1.S, U266, Daudi) (human) (UniProt Q02223); test: flow cytometry on MM1.S cells; antibody 100.000 ng/ml
[12] = target: BCMA on BCMA-expressing cells (H929 / NCI-H929, MM1.S, U266, Daudi) (human) (UniProt Q02223); test: flow cytometry on MM1.S cells; antibody 0000 ng/ml (background)
[13] = target: BCMA on BCMA-expressing cells (H929 / NCI-H929, MM1.S, U266, Daudi) (human) (UniProt Q02223); test: flow cytometry on H929 cells; antibody 3.130 ng/ml
[14] = target: recombinant BCMA (R&D Systems, catalog no. 193-BC) (human) (UniProt Q02223); test: competitive ELISA, plate-bound BCMA; Ab 0.200 ng/mL; competitor APRIL 250.00 ng/mL
[15] = target: recombinant BCMA (R&D Systems, catalog no. 193-BC) (human) (UniProt Q02223); test: competitive ELISA, plate-bound BCMA; Ab 0.020 ng/mL; competitor APRIL 7.81 ng/mL
[16] = target: recombinant BCMA (R&D Systems, catalog no. 193-BC) (human) (UniProt Q02223); test: competitive ELISA, plate-bound BCMA; Ab 200.000 ng/mL; competitor APRIL 7.81 ng/mL
[17] = target: recombinant BCMA (R&D Systems, catalog no. 193-BC) (human) (UniProt Q02223); test: competitive ELISA, plate-bound BCMA; Ab 2.000 ng/mL; competitor APRIL 500.00 ng/mL
[18] = target: recombinant BCMA (R&D Systems, catalog no. 193-BC) (human) (UniProt Q02223); test: competitive ELISA, plate-bound BCMA; Ab 0.020 ng/mL; competitor APRIL 0.00 ng/mL
[19] = target: BCMA on BCMA-expressing cells (H929 / NCI-H929, MM1.S, U266, Daudi) (human) (UniProt Q02223); test: flow cytometry on H929 cells; antibody 0.195 ng/ml
[20] = target: recombinant BCMA (R&D Systems, catalog no. 193-BC) (human) (UniProt Q02223); test: competitive ELISA, plate-bound BCMA; Ab 2.000 ng/mL; competitor APRIL 7.81 ng/mL
[21] = target: BCMA on BCMA-expressing cells (H929 / NCI-H929, MM1.S, U266, Daudi) (human) (UniProt Q02223); test: flow cytometry on MM1.S cells; antibody 0.781 ng/ml
[22] = target: recombinant BCMA (R&D Systems, catalog no. 193-BC) (human) (UniProt Q02223); test: competitive ELISA, plate-bound BCMA; Ab 20.000 ng/mL; competitor APRIL 7.81 ng/mL
[23] = target: recombinant BCMA (R&D Systems, catalog no. 193-BC) (human) (UniProt Q02223); test: competitive ELISA, plate-bound BCMA; Ab 0.002 ng/mL; competitor APRIL 250.00 ng/mL
[24] = target: recombinant BCMA (R&D Systems, catalog no. 193-BC) (human) (UniProt Q02223); test: competitive ELISA, plate-bound BCMA; Ab 2.000 ng/mL; competitor APRIL 0.00 ng/mL
[25] = target: recombinant BCMA (R&D Systems, catalog no. 193-BC) (human) (UniProt Q02223); test: competitive ELISA, plate-bound BCMA; Ab 20.000 ng/mL; competitor APRIL 15.63 ng/mL
[26] = target: recombinant BCMA (R&D Systems, catalog no. 193-BC) (human) (UniProt Q02223); test: competitive ELISA, plate-bound BCMA; Ab 0.002 ng/mL; competitor APRIL 500.00 ng/mL

Row | Binder | A450-A570 [1] | A450-A570 [2] | A450-A570 [3] | MFI [4] | A450-A570 [5] | MFI [6] | A450-A570 [7] | A450-A570 [8] | MFI [9] | A450-A570 [10] | MFI [11] | MFI [12] | MFI [13] | A450-A570 [14] | A450-A570 [15] | A450-A570 [16] | A450-A570 [17] | A450-A570 [18] | MFI [19] | A450-A570 [20] | also measured
1 | B1 | 0.0708 | 0.969 | 0.064 | 2110 | 0.0745 | 2110 | 0.0617 | 0.062 | 7560 | 0.0837 | 2440 | 2990 | 5170 | 0.0615 | 0.0631 | 2.51 | 0.0711 | 0.063 | 5030 | 0.0895 | MFI [21]: 2060; A450-A570 [22]: 0.495; A450-A570 [23]: 0.0647; A450-A570 [24]: 0.0894; A450-A570 [25]: 0.482; A450-A570 [26]: 0.0836
2 | B2 | 0.0676 | 2.21 | 0.0557 | 2070 | 0.0603 | 2030 | 0.0618 | 0.0601 | 20900 | 0.0921 | 4140 | 2990 | 5140 | 0.0614 | 0.0578 | 2.47 | 0.0732 | 0.057 | 5010 | 0.108 | MFI [21]: 2010; A450-A570 [22]: 0.789; A450-A570 [23]: 0.0607; A450-A570 [24]: 0.107; A450-A570 [25]: 0.778; A450-A570 [26]: 0.0617
